Key:
[1] = molecular target: recombinant HuNoV GI.1 P domain (Human Norovirus (HuNoV) GI.1); assay: ELISA on recombinant HuNoV GI.1 P domain, Spirulina-expressed Ni-NTA purified protein, sample B1, not freeze-dried
[2] = molecular target: recombinant HuNoV GI.1 P domain (Human Norovirus (HuNoV) GI.1); assay: ELISA on recombinant HuNoV GI.1 P domain, Spirulina-expressed Ni-NTA purified protein after freeze-drying
[3] = molecular target: recombinant HuNoV GI.1 P domain (Human Norovirus (HuNoV) GI.1); assay: ELISA on recombinant HuNoV GI.1 P domain, Spirulina-expressed Ni-NTA purified protein, sample B2, not freeze-dried
[4] = molecular target: GII.10 VLPs (human norovirus genotype GII.10); assay: blocking of GII.10 VLP binding to pig gastric mucin (HBGA)
[5] = molecular target: recombinant HuNoV GII.10 P domain (Human Norovirus (HuNoV) GII.10); assay: ELISA on recombinant P domain
[6] = molecular target: recombinant HuNoV GII.3 P domain (Human Norovirus (HuNoV) GII.3); assay: ELISA on recombinant P domain
[7] = molecular target: recombinant HuNoV GII.4 P domain (Human Norovirus (HuNoV) GII.4); assay: ELISA on recombinant P domain
[8] = molecular target: recombinant HuNoV GII.17 P domain (Human Norovirus (HuNoV) GII.17); assay: ELISA on recombinant P domain

B1: Nano94 (no chaperone partner) (VHH)
VHH: QVQLQESGGGLVQAGGSLRLSCAASGRMFSINSMGWYRQAPGKERELVATISEAGTTTYADSVRGRFTIARDNAKNTVYLQMNSLNPEDTAVYYCNAYIQLDSTIWFRAYWGQGTQVTVSS
[1]
  EC50: 21.2 nM
[2]
  EC50: 25.9 nM
[3]
  EC50: 17.1 nM

B2: SP828 (VHH)
VHH: QVQLQESGGGLVQSGGSLRLSCAASRNINSMHVVGWYRQAPGNQRELVASITDDGSTDYVDSVKGRFTISRDIAENTVYLQMNSLNPEDTAVYYCKGTIVVFTTPMHYWGKGTQVTVSS
[4]
  IC50 (read off the curve): 1 µg/mL

B3: Nano26-TxnA (VHH, not shown: large carriers)
VHH: QVQLQESGGGLVQPGGSLRLSCTAPRIIFFMYDVGWYRQAPEKQRELVAQINSDVSTKYADSVKGRFTISRDNAKRTVYLQMNDLKPEDAAVYYCNVRRASADYWGQGTQVTVSS
[5]
  EC50: 1.46 nM
[6]
  EC50: 4.46 nM
[7]
  EC50: 15.4 nM
[8]
  EC50: 2.52 nM

Reference: patent US20210338751A1
